Measurements: patent US20250340623A1 (AC IMMUNE, published 2025)
Where no end group is shown, it is not given here. The star is where a group is joined. Biotin = O=C1N[C@H]2[C@H](CS[C@H]2CCCCC(=O)*)N1; Ahx = NCCCCCC(=O)O

Legend:
1-15aa [1] = target: T1, 1-15aa; assay: indirect ELISA on biotinylated 15-mer peptide, supernatant 1/100
T1 construct: also called alpha-synuclein peptide 1-15
T1 peptide: {Biotin-Ahx}-MDVFMKGLSKAKEGV

1-14aa [2] = target: T2, 1-14aa; assay: indirect ELISA on biotinylated peptide, supernatant 1/100
T2 construct: also called alpha-synuclein peptide 1-14
T2 peptide: MDVFMKGLSKAKEG-biotin
Experimental: Serum-free supernatants were harvested from stable hybridomas. The supernatants containing antibodies of interest were then screened by an indirect ELISA assay to determine epitopes. Epitopes were first determined using a library of 15-mer peptides covering the entire sequence of human alpha-synuclein protein, spanning amino acids (aa) 1-140 with 9aa offset and […] overlap. […] Briefly, streptavidin-coated ELISA plates were blocked overnight at 4° C. […] Plates were washed with PBS/0.05% Tween®20 and then incubated with the hybridoma supernatants at 1/100 dilution for 1 hour at 25° C.

127-140aa = target: T3, 127-140aa; assay: indirect ELISA on biotinylated 15-mer peptide
T3 peptide: {Biotin-Ahx}-MPSEEGYQDYEPEA

10-24aa [3] = target: T4, 10-24aa; assay: indirect ELISA on biotinylated 15-mer peptide
T4 construct: also called alpha-synuclein peptide 10-24
T4 peptide: {Biotin-Ahx}-KAKEGVVAAAEKTKQ

82-96aa = target: T5, 82-96aa; assay: indirect ELISA on biotinylated 15-mer peptide
T5 construct: also called alpha-synuclein peptide 82-96
T5 peptide: {Biotin-Ahx}-VEGAGSIAAATGFVK

91-105aa = target: T6, 91-105aa; assay: indirect ELISA on biotinylated 15-mer peptide
T6 peptide: {Biotin-Ahx}-ATGFVKKDQLGKNEE

46-60aa = target: T7, 46-60aa; assay: indirect ELISA on biotinylated 15-mer peptide
T7 construct: also called alpha-synuclein peptide 46-60
T7 peptide: {Biotin-Ahx}-EGVVHGVATVAEKTK

118-132aa = target: T8, 118-132aa; assay: indirect ELISA on biotinylated 15-mer peptide
T8 peptide: {Biotin-Ahx}-VDPDNEAYEMPSEEG

[4] = target: T9, monomeric alpha-synuclein (UniProt P37840 1-140); assay: SPR, captured mAb
Experimental: (§1) Non-covalent immobilization of alpha-synuclein antibodies was performed using a target immobilization method of 2000 response units (RU). Antibodies were diluted in 10 mM sodium acetate pH 5.5 (GE Healthcare, BR-1003-52) to a final concentration of 5 μg/mL.
(§2) Binding affinity of alpha-synuclein antibodies to monomeric or fibrillar alpha-synuclein species was performed using a single-cycle kinetics method. The instrument was primed with 1×HBS-P+ buffer (10× stock from GE Healthcare, BR-1003-52 diluted in Milli-Q water). Injections of monomeric alpha-synuclein (aSyn) (Boston Biochem, SP-485), increasing in concentration from 0.62-50 nM prepared from serial 2-fold dilutions, were performed with contact times of 300 sec/injection at a flow rate of 30 μL/min. A dissociation phase of 900 sec followed the final 50 nM injection. Regeneration of the sensor to the goat anti-mouse antibody layer was achieved using 3 regenerations of 10 mM Glycine pH 1.7. […] Regeneration of the sensor to the goat anti-mouse antibody layer was achieved using 3 regenerations of 10 mM Glycine pH 1.7. Results obtained from single-cycle kinetics were evaluated by Biacore T200 evaluation software with 1:1 binding homogenous Langmuir model (with a global Rmax) with Cycle 5 as a blank subtraction. The following kinetic parameters were obtained: on-rate (ka), off-rate (kd), affinity constant (KD, ratio of kd by ka), maximum response (Rmax), and goodness of fit (Chi2).
(§3) Non-covalent capture of the alpha-synuclein antibodies was performed in three separate runs.

alpha-synuclein fibrils [5] = target: T10, alpha-synuclein fibrils (UniProt P37840 1-140); assay: SPR, captured mAb
Experimental: as §1, §2, §3

alpha-synuclein fibrils [6] = target: T10, alpha-synuclein fibrils; assay: SPR, captured mAb; alpha-synuclein fibrils
Experimental: Any non-covalently bound antibodies were removed by three successive regenerations of 10 mM Glycine pH 1.7 (GE Healthcare, 28-9950-84). Immobilization levels were evaluated following ethanolamine capping (Bound) and finally following regeneration (Final). Non-covalent immobilization of alpha-synuclein antibodies was performed using a target immobilization method of 2000 response units (RU). Antibodies were diluted in 10 mM sodium acetate pH 5.5 (GE Healthcare, BR-1003-52) to a final concentration of 5 μg/mL.
Binding affinity of alpha-synuclein antibodies to monomeric or fibrillar alpha-synuclein species was performed using a single-cycle kinetics method. The instrument was primed with 1×HBS-P+ buffer (10× stock from GE Healthcare, BR-1003-52 diluted in Milli-Q water). Injections of monomeric alpha-synuclein (aSyn) (Boston Biochem, SP-485), increasing in concentration from 0.62-50 nM prepared from serial 2-fold dilutions, were performed with contact times of 300 sec/injection at a flow rate of 30 μL/min. A dissociation phase of 900 sec followed the final 50 nM injection. Regeneration of the sensor to the goat anti-mouse antibody layer was achieved using 3 regenerations of 10 mM Glycine pH 1.7. […] Results obtained from single-cycle kinetics were evaluated by Biacore T200 evaluation software with 1:1 binding homogenous Langmuir model (with a global Rmax) with Cycle 5 as a blank subtraction. […]

[7] = target: T9, monomeric alpha-synuclein; assay: SPR, captured mAb; alpha-synuclein monomers
Experimental: as §1
Binding affinity of alpha-synuclein antibodies to monomeric or fibrillar alpha-synuclein species was performed using a single-cycle kinetics method. The instrument was primed with 1×HBS-P+ buffer (10× stock from GE Healthcare, BR-1003-52 diluted in Milli-Q water). Injections of monomeric alpha-synuclein (aSyn) (Boston Biochem, SP-485), increasing in concentration from 0.62-50 nM prepared from serial 2-fold dilutions, were performed with contact times of 300 sec/injection at a flow rate of 30 μL/min. A dissociation phase of 900 sec followed the final 50 nM injection. Regeneration of the sensor to the goat anti-mouse antibody layer was achieved using 3 regenerations of 10 mM Glycine pH 1.7. […] Regeneration of the sensor to the goat anti-mouse antibody layer was achieved using 3 regenerations of 10 mM Glycine pH 1.7. Results obtained from single-cycle kinetics were evaluated by Biacore T200 evaluation software with 1:1 binding homogenous Langmuir model (with a global Rmax) with Cycle 5 as a blank subtraction. […]

10-24aa [8] = target: T4, 10-24aa; assay: indirect ELISA on biotinylated 15-mer peptide, supernatant 1/100
1-15aa [9] = target: T1, 1-15aa; assay: indirect ELISA on biotinylated 15-mer peptide
1-14aa [10] = target: T2, 1-14aa; assay: indirect ELISA on biotinylated 15-mer peptide
alpha-synuclein seeds = alpha-synuclein seeds (UniProt P37840 1-140); assay: cell-based or functional assay
28-42aa = assay: indirect ELISA on biotinylated 15-mer peptide, supernatant 1/100
64-78aa = target: T11, 64-78aa; assay: indirect ELISA on biotinylated 15-mer peptide
T11 construct: also called alpha-synuclein peptide 64-78
T11 peptide: {Biotin-Ahx}-TNVGGAVVTGVTAVA

[11] = target: human full-length alpha-synuclein (human, UniProt P37840 1-140); assay: indirect ELISA on coated full-length alpha-synuclein, O.D. 405 nm
Experimental: Antibody binding to human full-length alpha-synuclein was determined using an indirect ELISA. Full-length alpha-synuclein was diluted in carbonate/bicarbonate buffer pH 9.6 (Sigma, C3041) to a final concentration of 2.5pg/ml and coated onto ELISA plates overnight at 4° C. After washing with PBS/0.05% Polyethylene glycol sorbitan monolaurate (Tween®20) and blocking for 1 hour at 37° C. (PBS/0.05% Tween®20/1% BSA), plates were incubated for 2 hours at 37° C. with three-fold dilution series of alpha-synuclein antibodies from 1 μg/mL to 0.0005 μg/mL using PBS/0.05% Tween®20/1% BSA as diluent.

B1: ACI-7079-2603C1-Ab3 (antibody, V domains shown)
VH: QVQLQQPGADLVKPGASVKLSCKASGYTFTSYWMQWTKQRPGQGLEWIGEIDPSDSYANYNQKFKGKATLTVDKYSSTAYMQLNSLTSEDSAVYYCALYDGPSYWGQGTLVTVS
VL: ENVLTQSPAIMSASPGEKVTMTCSAGSSVSYMHWFQQKSSTSPKLWIYDTSKLPSGVPGRFSGSGSGNSYSLTISSMEAEDVATYYCFQGSGYPYTFGGGTKLEIK
notes: mouse hybridoma mAb; VH/VL only; also called 2603C1H6
- binding result (1-15aa [1]): binds
- binding result (1-14aa [2]): binds
- binding result (127-140aa): no binding (tested: supernatant 1/100)
- binding result (10-24aa [3]): no binding (tested: supernatant 1/100)
- binding result (82-96aa): no binding (tested: supernatant 1/100)
- binding result (91-105aa): no binding (tested: supernatant 1/100)
- binding result (46-60aa): no binding (tested: supernatant 1/100)
- binding result (118-132aa): no binding (tested: supernatant 1/100)

B2: ACI-7067-4813-R4A-G7-rec1 (antibody, mouse IgG2a, V domains shown)
VH: EVQLEESGGGLVHPKGSLKLSCAASGFTFNSYAMHWVRQAPGKGLEWVARIRSKRSNYATYYADSVKDRFTISRDDSQSMVYLEMNNLEAEDTATYYCVRGGREAMDFWGQGTSVTVSS
VL: QAVVTQESALTTSPGETVTLTCRSSTGAVTTSNYANWVQEKPDHLFTGLIGGTNNRAPGVPARFSGSLIGDKAALTITGAQTEDEAIYFCALWYSNHWVFGGGTKLTVL
notes: from phage display of immunised mice; positive clones expressed recombinantly as murine IgG2a; VH/VL only; also called ACI-7067-R4A-G7-Ab-1
- koff [4]: 0.0737 s⁻¹
- kon [4]: 735000 M⁻¹ s⁻¹
- koff (alpha-synuclein fibrils [5]): 1.34e-07 s⁻¹
- kon (alpha-synuclein fibrils [5]): 4760 M⁻¹ s⁻¹
- Kd (alpha-synuclein fibrils [6]): 0.041 nM
- Kd [7]: 97 nM

B3: ACI-8032-6313G2-Ab1 (antibody, V domains shown)
VH: EVQLQQSGPELVKPGASVKISCKASGYTFTDYYMNWVKQSHGKSLEWIGDIDPNNGVTSYSQKFKGKATLTVDKSSSTAYMELRSLTSEDSAVYYCARTGYYGTSLYYAMDYWGQGTSVTVSS
VL: DIVMSQSPSSLAVSAGEKVTMNCKSSQSLLNSRTRKNYLAWYQQKPGQSPKLLIYWASTRESGVPDRFIGSGSGTGFTLTISSVQAEDLAVYYCKQSYDLWTFGGGTKLEIK
notes: mouse hybridoma mAb; VH/VL only; also called 6313G2A10
- koff [4]: 0.000541 s⁻¹
- kon [4]: 33500 M⁻¹ s⁻¹
- koff (alpha-synuclein fibrils [5]): 0.000829 s⁻¹
- kon (alpha-synuclein fibrils [5]): 338 M⁻¹ s⁻¹
- Kd (alpha-synuclein fibrils [6]): 2460 nM
- Kd [7]: 16.2 nM

B4: ACI-7079-2506F3-Ab1 (antibody, V domains shown)
VH: QVQLQQPGAELVKPGASVKLSCKASGYTFTTYWMQWVKQRPGQGLEWIGEIDPSDSYINYNQKFKGKATLTVDTSSSTAFMQLSSLTSEDSAVYYCARGMMDYWGQGTSVTVSS
VL: DVLMTQTPLSLPVSLGDQASISCRSSQSIVHSNGNTYLEWYLQKPGQSPKLLIYKVSNRFSGVPDRFSGSGSGTDFTLKISRVEAEDLGVYYCFKGSHVPYTFGGGTKLEIK
notes: mouse hybridoma mAb; VH/VL only; also called 2506F3E12
- binding result (10-24aa [8]): binds
- binding result (127-140aa): no binding (tested: supernatant 1/100)
- binding result (82-96aa): no binding (tested: supernatant 1/100)
- binding result (1-15aa [9]): no binding (tested: supernatant 1/100)
- binding result (91-105aa): no binding (tested: supernatant 1/100)
- binding result (46-60aa): no binding (tested: supernatant 1/100)
- binding result (118-132aa): no binding (tested: supernatant 1/100)
- binding result (1-14aa [10]): no binding (tested: supernatant 1/100)
- aggregation half-time (τ1/2) of seeded alpha-synuclein aggregation, ThT; no antibody 26.9 hours (alpha-synuclein seeds): 34.2 h

B5: ACI-7067-1206E5-Ab1 (antibody, V domains shown)
VH: QVQLQQSGPELVKPGASVKMSCKASGYTFTDYVISWVKQGTGQGLEWIGEIYPGNDSTYYNEKFKGKATLTADKSSNTAYMQLSSLTSEDSAVYFCAREGVSNGYLYLSMDYWGQGTSVTVSS
VL: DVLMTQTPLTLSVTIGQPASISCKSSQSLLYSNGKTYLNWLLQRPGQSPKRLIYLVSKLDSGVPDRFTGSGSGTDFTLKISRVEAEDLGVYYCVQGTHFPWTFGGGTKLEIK
notes: mouse hybridoma mAb; VH/VL only; also called 1206E5D2
- binding result (28-42aa): binds
- Kd [4]: 0.4 nM
- koff [4]: 6.36e-05 s⁻¹
- kon [4]: 165000 M⁻¹ s⁻¹
- Kd (alpha-synuclein fibrils [5]): 8.3 nM
- koff (alpha-synuclein fibrils [5]): 0.000405 s⁻¹
- kon (alpha-synuclein fibrils [5]): 57300 M⁻¹ s⁻¹
- binding result (127-140aa): no binding (tested: supernatant 1/100)
- binding result (82-96aa): no binding (tested: supernatant 1/100)
- binding result (64-78aa): no binding (tested: supernatant 1/100)
- binding result (46-60aa): no binding (tested: supernatant 1/100)
- binding result (118-132aa): no binding (tested: supernatant 1/100)
- EC50 (read off the curve) [11]: ~0.04 µg/mL
